Tests used:
[1] = target: human CLDN18.2 on cells (human) (UniProt P56856); test: flow cytometry on DAN-G18.2 cells
[2] = target: human CLDN18.2 on cells (human) (UniProt P56856); test: flow cytometry on CHO-GS-hCLDN18.2 cells
[3] = target: human CLDN18.2 on cells (human) (UniProt P56856); test: flow cytometry on SUN601 (SNU601) cells

EC50 [1]: 6.95 nM
EC50 [2]: 8.21 nM
EC50 [3]: 261 nM
B1: Hz69H9-2.1 PG Ab (antibody, human IgG1, kappa, V domains shown)
VH: QVQLVQSGAEVKKPGSSVKVSCKASGYSFSSYNIHWVRQAPGQGLEWMGYIAPFQGDARYNQKFKGRVTITADKSTSTAYMELSSLRSEDTAVYYCARLNRGNALDYWGQGTLVTVSS
VL: DIVMTQSPDSLAVSLGERATINCKSSQSLFQSGNQRNYLTWYQQKPGQPPKLLIYWASTRESGVPDRFSGSGSGTDFTLTISSLQAEDVAVYYCQNNYIYPLTFGGGTKVEIKR
